Data taken from the supplement of paper PMC11246515.
± gives the standard deviation of the averaged measurements.

Assay: total protein half-life in vivo (active degradation + dilution); higher = more stable protein
[1] = E. coli NCM3722 delta-clpP delta-lon delta-hslV, growth: N-lim chemostat, doubling time 6 h
[2] = E. coli NCM3722 delta-clpP, growth: N-lim chemostat, doubling time 6 h
[3] = E. coli NCM3722 delta-hslV, growth: N-lim chemostat, doubling time 6 h
[4] = E. coli NCM3722 delta-lon, growth: N-lim chemostat, doubling time 6 h
[5] = E. coli NCM3722 delta-smpB, growth: N-lim chemostat, doubling time 6 h
[6] = wild type E. coli NCM3722, growth: C-lim chemostat, doubling time 3 h
[7] = wild type E. coli NCM3722, growth: C-lim chemostat, doubling time 6 h
[8] = wild type E. coli NCM3722, growth: C-lim chemostat, doubling time 12 h
[9] = wild type E. coli NCM3722, growth: N-lim chemostat, doubling time 6 h
[10] = wild type E. coli NCM3722, growth: N-lim chemostat, doubling time 12 h
[11] = wild type E. coli NCM3722, growth: P-lim chemostat, doubling time 6 h
[12] = wild type E. coli NCM3722, growth: P-lim chemostat, doubling time 12 h

Sequence | total protein half-life in vivo [1] | total protein half-life in vivo [2] | total protein half-life in vivo [3] | total protein half-life in vivo [4] | total protein half-life in vivo [5] | total protein half-life in vivo [6] | total protein half-life in vivo [7] | total protein half-life in vivo [8] | total protein half-life in vivo [9] | total protein half-life in vivo [10] | total protein half-life in vivo [11] | total protein half-life in vivo [12]
MNNNDLVAKLWKLCDNLRDGGVSYQNYVNELASLLFLKMCKETGQEAEYLPEGYRWDDLKSRIGQEQLQFYRKMLVHLGEDDKKLVQAVFHNVSTTITEPKQITALVSNMDSLDWYNGAHGKSRDDFGDMYEGLLQKNANETKSGAGQYFTPRPLIKTIIHLLKPQPREVVQDPAAGTAGFLIEADRYVKSQTNDLDDLDGDTQDFQIHRAFIGLELVPGTRRLALMNCLLHDIEGNLDHGGAIRLGNTLGSDGENLPKAHIVATNPPFGSAAGTNITRTFVHPTSNKQLCFMQHIIETLHPGGRAAVVVPDNVLFEGGKGTDIRRDLMDKCHLHTILRLPTGIFYAQGVKTNVLFFTKGTVANPNQDKNCTDDVWVYDLRTNMPSFGKRTPFTDEHLQPFERVYGEDPHGLSPRTEGEWSFNAEETEVADSEENKNTDQHLATSRWRKFSREWIRTAKSDSLDISWLKDKDSIDADSLPEPDVLAAEAMGELVQALSELDALMRELGASDEADLQRQLLEEAFGGVKE | 5.68 ± 0.29 h | 4.9709 ± 0.0002 h | 4.85 ± 0.48 h | 4.72 ± 0.37 h | 4.17 ± 0.28 h | 2.586 ± 0.0099 h | 5.252 ± 0.027 h | 9.58 ± 1 h | 4.476 ± 0.014 h | 7.36 ± 0.36 h | 5.18 ± 0.24 h | 10.5 ± 0.66 h
MKRTMLYLSLLAVSCSVSAAKYPVLTESSPEKAGFNVERLNQMDRWISQQVDVGYPSVNLLIIKDNQIVYRKAWGAAKKYDGSVLMEQPVKATTGTLYDLASNTKMYATNFALQKLMSEGKLHPDDRIAKYIPGFADSPNDTIKGKNTLRISDLLHHSGGFPADPQYPNKAVAGALYSQDKGQTLEMIKRTPLEYQPGSKHIYSDVDYMLLGFIVESVTGQPLDRYVEESIYRPLGLTHTVFNPLLKGFKPQQIAATELNGNTRDGVIHFPNIRTSTLWGQVHDEKAFYSMGGVSGHAGLFSNTGDIAVLMQTMLNGGGYGDVQLFNAETVKMFTTSSKEDATFGLGWRVNGNATMTPTFGTLASPQTYGHTGWTGTVTVIDPVNHMTIVMLSNKPHSPVADPQKNPNMFESGQLPIATYGWVVDQVYAALKQK | 6.01 ± 1.4 h |  |  | 5.56 ± 0.55 h | 5.13 ± 0.61 h | 3.15 ± 0.17 h | 6.3 ± 0.47 h | 10.4 ± 1.3 h | 5.42 ± 0.84 h | 11.2 ± 0.13 h | 5.84 ± 0.99 h | 
MSELNEKLATAWEGFTKGDWQNEVNVRDFIQKNYTPYEGDESFLAGATEATTTLWDKVMEGVKLENRTHAPVDFDTAVASTITSHDAGYINKQLEKIVGLQTEAPLKRALIPFGGIKMIEGSCKAYNRELDPMIKKIFTEYRKTHNQGVFDVYTPDILRCRKSGVLTGLPDAYGRGRIIGDYRRVALYGIDYLMKDKLAQFTSLQADLENGVNLEQTIRLREEIAEQHRALGQMKEMAAKYGYDISGPATNAQEAIQWTYFGYLAAVKSQNGAAMSFGRTSTFLDVYIERDLKAGKITEQEAQEMVDHLVMKLRMVRFLRTPEYDELFSGDPIWATESIGGMGLDGRTLVTKNSFRFLNTLYTMGPSPEPNMTILWSEKLPLNFKKFAAKVSIDTSSLQYENDDLMRPDFNNDDYAIACCVSPMIVGKQMQFFGARANLAKTMLYAINGGVDEKLKMQVGPKSEPIKGDVLNYDEVMERMDHFMDWLAKQYITALNIIHYMHDKYSYEASLMALHDRDVIRTMACGIAGLSVAADSLSAIKYAKVKPIRDEDGLAIDFEIEGEYPQFGNNDPRVDDLAVDLVERFMKKIQKLHTYRDAIPTQSVLTITSNVVYGKKTGNTPDGRRAGAPFGPGANPMHGRDQKGAVASLTSVAKLPFAYAKDGISYTFSIVPNALGKDDEVRKTNLAGLMDGYFHHEASIEGGQHLNVNVMNREMLLDAMENPEKYPQLTIRVSGYAVRFNSLTKEQQQDVITRTFTQSM | 4.8 ± 0.094 h | 3.3 ± 0.053 h | 2.98 ± 0.12 h | 3.71 ± 0.17 h | 2.58 ± 0.067 h | 2 ± 0.078 h | 3.04 ± 0.058 h | 4.18 ± 0.3 h | 3.04 ± 0.21 h | 4.452 ± 0.017 h | 3.36 ± 0.26 h | 6.13 ± 0.27 h
MLKTIRKHGITLALFAAGSTGLTAAINQMTKTTIAEQASLQQKALFDQVLPAERYNNALAQSCYLVTAPELGKGEHRVYIAKQDDKPVAAVLEATAPDGYSGAIQLLVGADFNGTVLGTRVTEHHETPGLGDKIELRLSDWITHFAGKKISGADDAHWAVKKDGGDFDQFTGATITPRAVVNAVKRAGLYAQTLPAQLSQLPACGE | 5.83 ± 1.8 h |  | 6.171 ± 0.022 h | 5.52 ± 1.2 h | 6.06 ± 0.48 h | 3.07 ± 0.086 h | 5.7 ± 0.36 h | 10.6 ± 1.6 h | 5.75 ± 0.07 h | 11.9 ± 0.64 h | 5.82 ± 0.13 h | 11.9 ± 0.49 h
MAQEIELKFIVNHSAVEALRDHLNTLGGEHHDPVQLLNIYYETPDNWLRGHDMGLRIRGENGRYEMTMKVAGRVTGGLHQRPEYNVALSEPTLDLAQLPTEVWPNGELPADLASRVQPLFSTDFYREKWLVAVDGSQIEIALDQGEVKAGEFAEPICELELELLSGDTRAVLKLANQLVSQTGLRQGSLSKAARGYHLAQGNPAREIKPTTILHVAAKADVEQGLEAALELALAQWQYHEELWVRGNDAAKEQVLAAISLVRHTLMLFGGIVPRKASTHLRDLLTQCEATIASAVSAVTAVYSTETAMAKLALTEWLVSKAWQPFLDAKAQGKISDSFKRFADIHLSRHAAELKSVFCQPLGDRYRDQLPRLTRDIDSILLLAGYYDPVVAQAWLENWQGLHHAIATGQRIEIEHFRNEANNQEPFWLHSGKR | 5.73 ± 0.11 h | 5.48 ± 0.56 h | 5.22 ± 0.088 h | 4.91 ± 1.1 h | 4.78 ± 0.12 h | 3.09 ± 0.13 h | 6.25 ± 0.19 h | 10.7 ± 1.1 h | 5.37 ± 0.26 h | 8.65 ± 0.74 h | 6.02 ± 0.58 h | 11.6 ± 1.1 h
MPLLKLWAGSLVMLAAVSLPLQAASPVKVGSKIDTEGALLGNIILQVLESHGVPTVNKVQLGTTPVVRGAITSGELDIYPEYTGNGAFFFKDENDAAWKNAQQGYEKVKKLDSEHNKLIWLTPAPANNTWTIAVRQDVAEKNKLTSLADLSRYLQEGGTFKLAASAEFIERADALPAFEKAYGFKLGQDQLLSLAGGDTAVTIKAAAQQTSGVNAAMAYGTDGPVAALGLQTLSDPQGVQPIYAPAPVVRESVLREYPQMAQWLQPVFASLDAKTLQQLNASIAVEGLDAKKVAADYLKQKGWTK | 4.32 ± 0.22 h | 5 ± 0.74 h | 6.28 ± 0.2 h | 7.16 ± 0.13 h | 5.47 ± 0.21 h | 3.08 ± 0.17 h | 5.7 ± 0.057 h | 9.88 ± 1.8 h | 5.95 ± 0.34 h | 12 ± 0.96 h | 6.08 ± 0.75 h | 12 ± 0.14 h
